Consider one substance from paper PMC10338323.

The target in this assay is EvdS6 (Micromonospora carbonacea var. aurantiaca). As to the kind of experiment: crystal structure; EvdS6 with copurified NAD+, ligand-free and TDP-bound states; hanging drop at about 25 °C; two protein chains in the asymmetric unit.

For EvdS6 (enzyme), the stoichiometry N (commonly the number of molecules, sites or subunits per partner or assembly) came out at 2.
